Test results from patent publication US20150307588A1.

Legend:
[1] = target: hBMP-10 (human) (UniProt O95393); assay: SPR kinetics, captured CHO-cell-derived protein
[2] = target: hBMP-9 (human) (UniProt Q9UK05); assay: SPR kinetics, captured CHO-cell-derived protein
[3] = target: hBMP-10 (human) (UniProt O95393); assay: cell-based or functional assay
[4] = target: hBMP-9 (human) (UniProt Q9UK05); assay: cell-based or functional assay

UniProt Q9UK05, sequence (Q9UK05 320-429 limits assumed): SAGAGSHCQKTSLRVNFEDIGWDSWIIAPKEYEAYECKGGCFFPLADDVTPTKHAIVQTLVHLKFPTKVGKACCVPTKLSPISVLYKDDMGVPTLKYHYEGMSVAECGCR
UniProt O95393, sequence (O95393 317-424 limits assumed): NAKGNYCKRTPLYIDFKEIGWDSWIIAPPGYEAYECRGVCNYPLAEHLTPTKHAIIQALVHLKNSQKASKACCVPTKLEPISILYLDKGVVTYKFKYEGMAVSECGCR

Kd [1]: 0.49 nM | koff [1]: 0.011 s⁻¹ | Kd [2]: 0.033 nM | koff [2]: 0.0025 s⁻¹ | IC50 (nM), BRE-luciferase reporter-gene assay in A204 cells [3]: 7.9 nM | IC50 (nM), BRE-luciferase reporter-gene assay in A204 cells [4]: 0.26 nM
Substance: hENG(26-586)-hFc, CHO-cell-derived, with N-terminally truncated Fc domain (Fc fusion)
